“Also recorded” adds a separate entry of the source.
Key:
[1] = biological target: T1, MMP-14 (Homo sapiens, UniProt P50281); experiment: ELISA binding, cross-reactivity
[2] = system: RIP1-Tag2 insulinoma (PanNET) model; experiment: Late stage treatment in RIP1-Tag2 (PanNET) mice; type: in vivo, mouse; details: age 10 to 12 weeks, 5 mg/kg every other day IP
From the text: (§1) RIP1-Tag2: The RIP1Tag2 (RT2) murine PanNET model was developed by the fusion of Rat Insulin II promoter region to the SV40 early region that encodes the large T and small t antigens. Although oncogene expression begins during embryonic development (E8.5), the pancreatic islets initially have a normal anatomical and histological appearance (“normal” stage). Beginning at 4-5 weeks of age, hyperplastic and dysplastic islets begin to appear, rending 50% of all islets by 10 weeks of age. Angiogenic islets appear beginning around 6 weeks of age, and represent 10% of all islets at 10.5 weeks. Angiogenic islets are recognized by their dilated blood vessels and micro-hemorrhages. Tumors form beginning at 9-10 weeks and represent 2-4% of all the islets by 14 weeks. About half of the tumors at end stage evidence either focal or widespread invasion to the surrounding acinar tissue. RIP-Tag2 mice die at approximately 14 weeks of age primarily due to hyperinsulinemia.
The tumor volume was measured using x, y and z dimensions from a caliper scale.

[3] = biological target: T2, MMP-12 (Homo sapiens, UniProt P39900); experiment: ELISA binding, cross-reactivity
[4] = biological target: MMP-13 (Homo sapiens, UniProt P45452); experiment: ELISA binding, cross-reactivity
[5] = system: CFPAC-1 cells; experiment: Trans-well migration assay; type: cell-based, human; details: 15 h post treatment, sub-lethal concentrations
Description: Trans-well migration assay: Cells were starved overnight in assay media (IMDM media containing only 1% serum). Cells (1×10^5) were added to the top chambers of 24-well transwell plates (BD Biosciences; 8 μm pore size), and assay media, with or without GSM-192, was added to both chambers. […] The numbers of cells in five fields were counted under 20× magnification, and the mean for each chamber determined.
(§2) GSM-192 Fab reduces cell motility in vitro: MMP-7 mediated E-Cadherin cleavage promotes cell migration^19, so it was hypothesized that an effective anti MMP-7 antibody directed to the activated enzyme should be able to impact migration.

[6] = system: RIP1-Tag2 insulinoma (PanNET) model; experiment: Early stage treatment in RIP1-Tag2 (PanNET) mice; type: in vivo, mouse; details: 3 mg/kg every day IP; for area covered by CD34+ cells: islets undergoing angiogenesis
From the text: as §1
GSM-192 treatment reduces occurrence of advanced tumor lesions in RIP1-Tag2 (PanNET) mice in early stage treatments: RIP1-Tag2 mice (n=15) in transition stage from hyperplastic to angiogenic stage spanning 6 to 8 weeks of age were treated with GSM-192 and GST control antibody at a concentration of 3 mg/kg every day intra peritoneal (IP). Animals at age 8 weeks post treatment was sacrificed and their pancreas was embedded in paraffin blocks and sectioned. Several sections in different depth in the tissue were made for subsequent histological analysis or immunofluorescence staining. Tumor sizes and staging was done in accordance with RIP1-Tag2 manual. […] As previously observed in in-vitro cell culture, the tissue was tested for differences in cell proliferation rate (with cell division marker Ki-67) and in cell apoptosis rate (with effector apoptotic marker Caspase-3).

[7] = biological target: T3, MMP-9 (Homo sapiens, UniProt P14780); experiment: ELISA binding, cross-reactivity
[8] = biological target: T3, MMP-9; experiment: Enzymatic activity of related MMPs (fluorogenic peptide); type: biochemical; details: in vitro
Description: (§3) MMP-7 enzymatic kinetic assay: The enzymatic activity of MMP-7 in the presence of GSM-192 Fab was measured at 37° C. by monitoring the hydrolysis of fluorogenic peptide Mca-Pro-Leu-Gly-Leu-Dpa-Ala-Arg-NH2 (SEQ ID NO: 10) at λex=340 nm and […] as described previously^30. A range of different concentrations of GSM-192 Fab (0-200 nM) were incubated with 10 nM of MMP-7 in 50 mM Tris-HCl buffer (pH 7.5 at 37° C.), 100 mM NaCl, 5 mM CaCl2, and 0.05% Brij-35 for 2 h at 37° C. The enzymatic reaction was initiated by addition of the fluorogenic peptide to a final concentration of 10 μM. Fluorescence was recorded immediately and continuously for 30 min.
(§4) Remarkably, considering that the immunization booster also included the common zinc motif, the antibody is fully selective for MMP-7. The effect of GSM-192 Fab fragment on the enzymatic activity of human MMP-7 was examined in vitro using a short fluorogenic peptide according to a standard protocol. The enzymatic activity of recombinant active MMP-7 was measured in the presence of increasing concentrations of the Fab fragment of GSM-192. […] Simultaneously the effect of the antibody on catalytic activity of related MMPs was measured.

[9] = biological target: T1, MMP-14; experiment: as above; type: biochemical; details: in vitro
Description: as §3, §4

[10] = biological target: T2, MMP-12; experiment: as above; type: biochemical; details: in vitro
Description: as §3, §4

[11] = system: CFPAC-1 cells; experiment: Wound healing assay (scratch assay); type: cell-based, human; details: 7 hours post treatment, vs control antibody GST
Description: Wound Healing Assay (Scratch Assay): The migratory behavior of cells was assayed by means of a wound-healing assay using a culture-insert (ibidi GmbH, Am Klopferspitz 19, Martinsried, Germany) according to the manufacturer's instruction. After 24 h the culture-inserts were removed leaving a cell-free gap (“defined as a wound”) of approx. 500 μm. The migration rate into this “wound area” was documented and measured using Carl Zeiss microscope (DeltaVision Microscopy Imaging Systems—GE Healthcare Life Sciences, USA). The migration rate was determined by percentage area covered by cells. Each analysis was performed in triplicates and was repeated two times.
as §2

[12] = 6 to 8 weeks of age, listed as anti MMP-7 mAb

T3 sequence (P14780 94-707, species assumed): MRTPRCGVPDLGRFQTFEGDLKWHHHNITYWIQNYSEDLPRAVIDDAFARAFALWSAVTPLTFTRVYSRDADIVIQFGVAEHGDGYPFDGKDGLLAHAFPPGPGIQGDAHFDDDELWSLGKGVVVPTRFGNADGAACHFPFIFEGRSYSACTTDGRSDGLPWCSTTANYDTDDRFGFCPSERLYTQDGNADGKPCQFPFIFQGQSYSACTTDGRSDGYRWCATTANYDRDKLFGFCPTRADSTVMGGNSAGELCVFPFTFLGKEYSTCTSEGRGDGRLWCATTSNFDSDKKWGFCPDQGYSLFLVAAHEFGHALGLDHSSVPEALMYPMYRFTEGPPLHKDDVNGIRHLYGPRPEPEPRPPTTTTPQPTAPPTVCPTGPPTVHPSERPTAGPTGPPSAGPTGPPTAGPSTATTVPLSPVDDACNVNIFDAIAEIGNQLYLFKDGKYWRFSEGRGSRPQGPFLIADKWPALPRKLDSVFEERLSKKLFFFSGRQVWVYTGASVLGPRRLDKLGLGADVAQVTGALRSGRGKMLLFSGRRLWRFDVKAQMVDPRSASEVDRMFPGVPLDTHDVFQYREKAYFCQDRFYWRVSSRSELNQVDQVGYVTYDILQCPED
T2 sequence (P39900 106-470): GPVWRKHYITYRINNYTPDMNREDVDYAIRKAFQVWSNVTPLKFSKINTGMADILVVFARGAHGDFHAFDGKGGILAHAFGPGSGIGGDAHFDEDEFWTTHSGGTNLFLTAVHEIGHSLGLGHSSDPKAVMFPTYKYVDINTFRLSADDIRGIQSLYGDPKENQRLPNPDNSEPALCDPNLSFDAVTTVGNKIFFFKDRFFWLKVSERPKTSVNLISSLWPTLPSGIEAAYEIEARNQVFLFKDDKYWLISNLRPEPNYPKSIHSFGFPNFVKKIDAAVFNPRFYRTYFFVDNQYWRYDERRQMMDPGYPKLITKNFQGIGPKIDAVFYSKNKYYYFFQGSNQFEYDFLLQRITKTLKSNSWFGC

B1: GSM-192: monoclonal antibody to MMP-7 binding the catalytic domain, not the zymogen; VL SEQ ID NO: 1, VH SEQ ID NO: 2 (antibody, V domains shown)
VH: EVQLQQSGPELVKPGASVKIPCKASGYTFTDYNMDWMKQSHGKSLEWIGHINPNNGGTFYNQKFKDKATFIVDKSSNTAYMELRSLTSEDTAVYFCARGGGLRRGPFAYWGQGTLVTVS
VL: DIVTQSPASLAVSLGQRATISCRASESFDSYGNTFVHWYQQKPGQPPKLLIYLVSNLESGVPAGFRGRGSRTDFTLTIDPVEADDAATYYCQQNNEDPYTFGGGTKLEIKRA
modifications: GSM-192 Heavy Chain Sequence; GSM-192 Light Chain Sequence
[1]
  crossreactivity to MMP-14: did not show crossreactivity
[2]
  tumor volume relative to control group: less than half
[3]
  crossreactivity to MMP-12: did not show crossreactivity
[4]
  crossreactivity to MMP-13: did not show crossreactivity
[5]
  cells migrating across the transwell membrane: almost by half; also recorded: reduces cells migrating across the transwell membrane significantly
[6]; 6 to 8 weeks of age
  number of Caspase-3 positive cells (apoptosis): No significant change
  number of Ki-67 positive cells (cell proliferation): No significant change
[6]; [12]
  number of Caspase-3 positive cells (apoptosis): does not show significant difference
  number of Ki-67 positive cells (cell proliferation): does not show significant difference
[6]; 6 to 8 weeks of age, vs GST control antibody
  number of angiogenic islets / fraction of islets advancing to post angiogenic lesions: reduced almost by half; also recorded: half of the total seen in control mice
[6]
  area covered by CD34+ cells: less abundant
[6]; listed as anti MMP-7 mAb
  area covered by CD34+ cells: reduces the area covered by CD34+ cells
[7]
  crossreactivity to MMP-9: did not show crossreactivity
[8]
  effect on catalytic activity of MMP-9: negligible or no effect
[9]
  effect on catalytic activity of MMP-14: negligible or no effect
[10]
  effect on catalytic activity of MMP-12: negligible or no effect
[11]
  cell migration / rate of wound closure: significant reduction in rate of wound closure; also recorded: slowed down cell migration
